Source: patent publication US9913914

Molecular target: Cupid B-PTEN peptide

B1: PTEN protein of Dictyostelium (protein)
chain: MSNLLRVAVSKQKRRYQKNGYDLDLAYITDNIVAMGFPSEKVEGVFRNPMKDVQRFLDQYHKDHFKVYNLCSERVYDHSKFYGRVGYYPFDDHNAPQFEMIDAFCRDVDAWMKEDSKNIAVIHCKAGKGRTGLMICCWLMYCGMWKNTEDSLRFYAALRTYNQKGVTIPSQIRYVGYFGRSIRESIKYVPRNVTLKKIVLRPLPKEINLSEVQFNISVGKNCVFNSKEHNMNVVISKKKKTVVDKNKKDPKKKLTKENSEKNIDSQQQQQSQSSLSQSQQGQSSPNMQSLSASGTISSGSNVGTVNGNTLHQLGGSQFSLSDLADGNTIGNDEYISFEIGALSLAGDIRIEFTNKQDDRMFMFWVNTSFVQQLEIIPKSGLDKAHKDKNHKAFPEDFHVELTFDQLDQQQSHTTVVASAEEQTNNQHYPQSSNNVATSSSHHDNITVVASDAPQNNNNNNNLNSSNSNNATTTTTKNNISLASSQSNPVQQESNPSTTTQVSEENSAPKVEAEKIENSNASANDSETSSNSSS
Question: Which “phosphorylation response of proteins to cyclic AMP (antibody detection on SDS gels)” value does the source give for B1 here?
Answer: they exhibited a much stronger initial phosphorylation response to cyclic AMP
